# Results as given in patent publication US10704030B2, “P450-BM3 variants with improved activity” (Codexis, Inc., priority 2015, dated 2020).
# Changes are numbered by the printed parent chain. Names and notes keep the numbering of the source.
# B1: SEQ ID NO: 10: P450-BM3 parental backbone from the commercially available MCYP panel (MCYP-0343; Codexis) (protein)
# chain: MTIKEMPQPKTFGELKNLPLLNTDKPVQALMKIADELGEIFKFEAPGCVTRYLSSQRLIKEACDESRFDKNLSQALKFARDFAGDGLATSWTHEINWKKAHNILLPSFSQQAMKGYHAMMVDIAVQLVQKWERLNADEHIEVSEDMTRLTLDTIGLCGFNYRFNSFYRDQPHPFIISMVRALDEVMNKLQRANPDDPAYDENKRQCQEDIKVMNDLVDKIIADRKARGEQSDDLLTQMLNGKDPETGEPLDDGNISYQIITFLIAGHETTSGLLSFALYFLVKNPHVLQKVAEEAARVLVDPVPSYKQVKQLKYVGMVLNEALRLWPTAPAFSLYAKEDTVLGGEYPLEKGDEVMVLIPQLHRDKTIWGDDVEEFRPERFENPSAIPQHAFKPFGNGQRACIGQQFALHEATLVLGMMLKHFDFEDHTNYELDIKETLTLKPEGFVVKAKSKKIPLGGIPSPSTEQSAKKVRKKAENAHNTPLLVLYGSNMGTAEGTARDLADIAMSKGFAPQVATLDSHAGNLPREGAVLIVTASYNGHPPDNAKQFVDWLDQASADEVKGVRYSVFGCGDKNWATTYQKVPAFIDETLAAKGAENIADRGEADASDDFEGTYEEWREHMWSDVAAYFNLDIENSEDNKSTLSLQFVDSAADMPLAKMHGAFSTNVVASKELQQPGSARSTRHLEIELPKEASYQEGDHLGVIPRNYEGIVNRVTARFGLDASQQIRLEAEEEKLAHLPLAKTVSVEELLQYVELQDPVTRTQLRAMAAKTVCPPHKVELEALLEKQAYKEQVLAKRLTMLELLEKYPACEMKFSEFIALLPSIRPRYYSISSSPRVDEKQASITVSVVSGEAWSGYGEYKGIASNYLAELQEGDTITCFISTPQSEFTLPKDPETPLIMVGPGTGVAPFRGFVQARKQLKEQGQSLGEAHLYFGCRSPHEDYLYQEELENAQSEGIITLHTAFSRMPNQPKTYVQHVMEQDGKKLIELLDQGAHFYICGDGSQMAPAVEATLMKSYADVHQVSEADARLWLQQLEEKGRYAKDVWAG
# modifications: P450_BM3
# B2: Variant 3: P450-BM3 variant of SEQ ID NO: 10: K32R; C48S; Y52F; I95P; L216Y; D232H; E349K; M491A; N574T; D722S (protein)
# chain: B1 chain with K32R, C48S, Y52F, I95P, L216Y, D232H, E349K, M491A, N574T, D722S
# modifications: P450_BM3
# notes: C48S; Y52F; I95P; L216Y; D232H; E349K; M491A; N574T; D722S
# B3: Variant 4: P450-BM3 variant of SEQ ID NO: 10: K32R; C48S; Y52F; I95P; Q111R; L216Y; D232H; P347T; E349K; M491A; N574T; E619D; D722S (protein)
# chain: MTIKEMPQPKTFGELKNLPLLNTDKPVQALMRIADELGEIFKFEAPGSVTRFLSSQRLIKEACDESRFDKNLSQALKFARDFAGDGLATSWTHEPNWKKAHNILLPSFSQRAMKGYHAMMVDIAVQLVQKWERLNADEHIEVSEDMTRLTLDTIGLCGFNYRFNSFYRDQPHPFIISMVRALDEVMNKLQRANPDDPAYDENKRQCQEDIKVMNDYVDKIIADRKARGEQSHDLLTQMLNGKDPETGEPLDDGNISYQIITFLIAGHETTSGLLSFALYFLVKNPHVLQKVAEEAARVLVDPVPSYKQVKQLKYVGMVLNEALRLWPTAPAFSLYAKEDTVLGGEYTLKKGDEVMVLIPQLHRDKTIWGDDVEEFRPERFENPSAIPQHAFKPFGNGQRACIGQQFALHEATLVLGMMLKHFDFEDHTNYELDIKETLTLKPEGFVVKAKSKKIPLGGIPSPSTEQSAKKVRKKAENAHNTPLLVLYGSNAGTAEGTARDLADIAMSKGFAPQVATLDSHAGNLPREGAVLIVTASYNGHPPDNAKQFVDWLDQASADEVKGVRYSVFGCGDKTWATTYQKVPAFIDETLAAKGAENIADRGEADASDDFEGTYEEWRDHMWSDVAAYFNLDIENSEDNKSTLSLQFVDSAADMPLAKMHGAFSTNVVASKELQQPGSARSTRHLEIELPKEASYQEGDHLGVIPRNYEGIVNRVTARFGLSASQQIRLEAEEEKLAHLPLAKTVSVEELLQYVELQDPVTRTQLRAMAAKTVCPPHKVELEALLEKQAYKEQVLAKRLTMLELLEKYPACEMKFSEFIALLPSIRPRYYSISSSPRVDEKQASITVSVVSGEAWSGYGEYKGIASNYLAELQEGDTITCFISTPQSEFTLPKDPETPLIMVGPGTGVAPFRGFVQARKQLKEQGQSLGEAHLYFGCRSPHEDYLYQEELENAQSEGIITLHTAFSRMPNQPKTYVQHVMEQDGKKLIELLDQGAHFYICGDGSQMAPAVEATLMKSYADVHQVSEADARLWLQQLEEKGRYAKDVWAG
# modifications: P450_BM3
# notes: C48S; Y52F; I95P; Q111R; L216Y; D232H; P347T; E349K; M491A; N574T; E619D; D722S
# B4: Variant 5: P450-BM3 variant of SEQ ID NO: 10: C48S; I95P; G115R; L216Y; S231R; D232H; M491A; N574T; T577A; E619D; D722S (protein)
# chain: B3 chain with R32K, F52Y, R111Q, G115R, S231R, T347P, K349E, T577A
# modifications: P450_BM3
# notes: I95P; G115R; L216Y; S231R; D232H; M491A; N574T; T577A; E619D; D722S
# B5: SEQ ID NO: 12: P450-BM3 parental backbone from the commercially available MCYP panel (MCYP-0343; Codexis) (protein)
# chain: B1 chain with A79S, A88F
# modifications: P450_BM3
# B6: Variant 12: P450-BM3 variant of SEQ ID NO: 12: K32R; C48S; Y52F; I95P; Q111R; G115R; D232H; M491A; T577A; A627S; D722S (protein)
# chain: B3 chain with A79S, A88F, G115R, Y216L, T347P, K349E, T574N, T577A, D619E, A627S
# modifications: P450_BM3
# notes: C48S; Y52F; I95P; Q111R; G115R; D232H; M491A; T577A; A627S; D722S
# Experiment: Validation of generalist properties: oxidation of imatinib by lyophilized P450-BM3 variant, UPLC-MS
# Type: biochemical
# Details: [Imatinib] = 1 mM
# Method in brief: (§1)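 Lyophilized lysate of E. coli-expressed P450-BM3 variant (stock standardized to 12 μM heme) was incubated 24 h at 30 °C with 1 or 2 mM substrate, 1.0 mM NADP+, 25 mM glucose, 0.5 mg/mL glucose dehydrogenase and 5% DMSO in 100 mM potassium phosphate. Acetonitrile-quenched samples were analyzed by UPLC-MS (positive ESI).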
row,Molecule,% Conv.
1,B1,++ (5.01-10.00)
2,B2,++++ (15.01-20.00)
3,B3,++++ (15.01-20.00)
4,B4,++++ (15.01-20.00)
5,B5,++ (5.01-10.00)
6,B6,++++ (15.01-20.00)

# Same assay, conditions: [Imatinib] = 1 mM; TON = [substrate]*% conversion/[P450]
row,Molecule,TON
1,B1,‡‡ (1001-5000)
2,B2,‡‡‡‡ (10000-50000)
3,B3,‡‡‡‡ (10000-50000)
4,B4,‡‡‡‡ (10000-50000)
5,B5,‡‡ (1001-5000)
6,B6,‡‡‡‡ (10000-50000)

# Same assay, conditions: [Imatinib] = 1 mM; fold improvement over parent MCYP-P1.2-B02
row,Molecule,FIOPC (B02)
1,B3,*** (5.01-10.0)
2,B4,*** (5.01-10.0)

# Same assay, conditions: [Imatinib] = 1 mM; fold improvement over parent MCYP-P1.2-B12
row,Molecule,FIOPC (B12)
1,B2,*** (5.01-10.0)

# Same assay, conditions: [Imatinib] = 1 mM; fold improvement over parent MCYP-P1.2-D06
row,Molecule,FIOPC (D06)
1,B6,*** (5.01-10.0)

# Experiment: Validation of generalist properties: oxidation of gefitinib by lyophilized P450-BM3 variant, UPLC-MS
# Type: biochemical
# Details: [Gefitinib] = 1 mM
# Method in brief: as §1
row,Molecule,% Conv.
1,B1,++ (5.01-10.00)
2,B2,++++ (15.01-20.00)
3,B3,++++ (15.01-20.00)
4,B4,++++ (15.01-20.00)
5,B5,+ (0-5.00)
6,B6,+ (0-5.00)

# Same assay, conditions: [Gefitinib] = 1 mM; TON = [substrate]*% conversion/[P450]
row,Molecule,TON
1,B1,‡‡ (1001-5000)
2,B2,‡‡‡‡ (10000-50000)
3,B3,‡‡‡‡ (10000-50000)
4,B4,‡‡‡‡ (10000-50000)
5,B5,‡ (0-1000)
6,B6,‡ (0-1000)

# Same assay, conditions: [Gefitinib] = 1 mM; fold improvement over parent MCYP-P1.2-B12
row,Molecule,FIOPC (B12)
1,B2,*** (5.01-10.0)
2,B3,*** (5.01-10.0)
3,B4,*** (5.01-10.0)

# Same assay, conditions: [Gefitinib] = 1 mM; fold improvement over parent MCYP-P1.2-D06
row,Molecule,FIOPC (D06)
1,B6,* (0.0-3.0)

# Experiment: Validation of generalist properties: oxidation of loratadine by lyophilized P450-BM3 variant, UPLC-MS
# Type: biochemical
# Details: [Loratadine] = 1 mM
# Method in brief: as §1
row,Molecule,% Conv.
1,B1,++++ (15.01-20.00)
2,B2,++++ (15.01-20.00)
3,B3,++++ (15.01-20.00)
4,B4,++++ (15.01-20.00)
5,B5,+ (0-5.00)
6,B6,++ (5.01-10.00)

# Same assay, conditions: [Loratadine] = 1 mM; TON = [substrate]*% conversion/[P450]
row,Molecule,TON
1,B1,‡‡‡‡ (10000-50000)
2,B2,‡‡‡‡ (10000-50000)
3,B3,‡‡‡‡ (10000-50000)
4,B4,‡‡‡‡ (10000-50000)
5,B5,‡‡ (1001-5000)
6,B6,‡‡ (1001-5000)

# Same assay, conditions: [Loratadine] = 1 mM; fold improvement over parent MCYP-P1.2-B12
row,Molecule,FIOPC (B12)
1,B2,* (0.0-3.0)
2,B3,* (0.0-3.0)
3,B4,* (0.0-3.0)

# Same assay, conditions: [Loratadine] = 1 mM; fold improvement over parent MCYP-P1.2-D06
row,Molecule,FIOPC (D06)
1,B6,* (0.0-3.0)

# Experiment: Validation of generalist properties: oxidation of diclofenac by lyophilized P450-BM3 variant, UPLC-MS
# Type: biochemical
# Details: [Diclofenac] = 1 mM
# Method in brief: as §1
row,Molecule,% Conv.
1,B1,++++ (15.01-20.00)
2,B2,++++ (15.01-20.00)
3,B3,++++ (15.01-20.00)
4,B4,++++ (15.01-20.00)
5,B5,+ (0-5.00)
6,B6,+++ (10.01-15.00)

# Same assay, conditions: [Diclofenac] = 1 mM; TON = [substrate]*% conversion/[P450]
row,Molecule,TON
1,B1,‡‡‡‡ (10000-50000)
2,B2,‡‡‡‡ (10000-50000)
3,B3,‡‡‡‡ (10000-50000)
4,B4,‡‡‡‡ (10000-50000)
5,B5,‡‡ (1001-5000)
6,B6,‡‡‡ (5001-10000)

# Same assay, conditions: [Diclofenac] = 1 mM; fold improvement over parent MCYP-P1.2-B12
row,Molecule,FIOPC (B12)
1,B2,* (0.0-3.0)
2,B3,* (0.0-3.0)
3,B4,* (0.0-3.0)

# Same assay, conditions: [Diclofenac] = 1 mM; fold improvement over parent MCYP-P1.2-D06
row,Molecule,FIOPC (D06)
1,B6,** (3.01-5.0)
